Target: T1, CRB1-FLAG p.Y1161C (human, UniProt P82279 26-1406, p.Y1161C)
T1 construct: Crumbs homolog 1, canonical form, human, cDNA NM_202153 as printed, with a patient missense mutation; Made by site-directed mutagenesis of m1; also called CRB1 p.Y1161C; CRB1-FLAG MT; source: HEK293T, transfected, in lysate; not shown: Strep-Strep-FLAG, N-terminal, kept
T1 sequence (looked up): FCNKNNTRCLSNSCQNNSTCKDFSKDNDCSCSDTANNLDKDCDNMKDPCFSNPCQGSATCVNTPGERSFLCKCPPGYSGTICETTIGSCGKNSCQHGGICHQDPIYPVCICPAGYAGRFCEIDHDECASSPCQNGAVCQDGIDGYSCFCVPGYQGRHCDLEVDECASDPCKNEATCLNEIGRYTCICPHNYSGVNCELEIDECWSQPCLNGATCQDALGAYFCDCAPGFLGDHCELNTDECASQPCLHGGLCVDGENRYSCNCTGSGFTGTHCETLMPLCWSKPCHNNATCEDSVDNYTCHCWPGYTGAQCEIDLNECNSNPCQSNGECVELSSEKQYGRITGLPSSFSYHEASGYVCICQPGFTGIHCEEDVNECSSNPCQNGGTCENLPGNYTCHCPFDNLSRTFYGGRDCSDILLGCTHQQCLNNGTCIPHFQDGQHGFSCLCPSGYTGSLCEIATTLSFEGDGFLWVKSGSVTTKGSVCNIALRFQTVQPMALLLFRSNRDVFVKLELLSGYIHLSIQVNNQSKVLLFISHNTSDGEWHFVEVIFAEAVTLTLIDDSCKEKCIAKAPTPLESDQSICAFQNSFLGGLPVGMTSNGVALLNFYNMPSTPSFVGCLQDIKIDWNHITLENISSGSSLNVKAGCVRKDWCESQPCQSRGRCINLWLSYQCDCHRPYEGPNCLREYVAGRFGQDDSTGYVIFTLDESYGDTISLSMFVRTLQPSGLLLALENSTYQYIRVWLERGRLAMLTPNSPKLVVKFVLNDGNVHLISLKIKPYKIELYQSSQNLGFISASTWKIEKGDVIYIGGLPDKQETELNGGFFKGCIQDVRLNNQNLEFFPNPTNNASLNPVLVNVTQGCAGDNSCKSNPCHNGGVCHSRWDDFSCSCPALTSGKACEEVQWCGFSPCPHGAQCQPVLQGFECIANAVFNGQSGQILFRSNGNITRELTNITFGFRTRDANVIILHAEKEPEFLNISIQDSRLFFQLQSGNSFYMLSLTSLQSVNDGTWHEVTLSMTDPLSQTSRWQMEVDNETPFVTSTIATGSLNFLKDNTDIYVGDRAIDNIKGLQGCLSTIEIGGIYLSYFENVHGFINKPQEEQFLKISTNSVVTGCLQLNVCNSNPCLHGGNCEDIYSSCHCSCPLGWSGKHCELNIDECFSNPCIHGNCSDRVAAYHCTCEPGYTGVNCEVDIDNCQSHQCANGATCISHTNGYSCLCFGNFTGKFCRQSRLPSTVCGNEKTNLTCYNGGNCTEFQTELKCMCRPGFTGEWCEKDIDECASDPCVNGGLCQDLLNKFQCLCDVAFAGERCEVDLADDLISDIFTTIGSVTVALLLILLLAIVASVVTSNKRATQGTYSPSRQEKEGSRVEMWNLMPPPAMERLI
Test: co-IP; HEK293T cells co-transfected pairwise with a FLAG and an HA construct, 48 h; lysis in TBS (30 mM Tris-HCl pH 7.4, 150 mM NaCl) with 0.5% Nonidet P40; FLAG-IP on ANTI-FLAG M2 Affinity Gel 60-90 min at 4°C, elution with FLAG peptide; Western blot with HA and FLAG antibodies; for mutants HA/FLAG signal in eluates relative to WT, three biological replicates
Details: partners not purified

percent reduction of the interaction relative to CRB1 WT: 11%
B1: Human canonical CRB2 (Crumbs homolog 2) (natural protein)
chain: not shown
notes: Crumbs homolog 2, human, cDNA NM_173689; Stood as bait (FLAG copy) and as prey (HA copy) in the pairwise co-IP matrix; each copy carries only one of the two tags; The FLAG copy was the bait of the mass spectrometry pull-downs; also called CRB2-FLAG; CRB2-HA; source: HEK293T, transfected, in lysate (co-IP); HEK293T, transfected, FLAG-IP on beads, washed and purified with 0.01% SDS (retina …)
